Experimental data: paper PMC6561178, “Caulobacter crescentus Hfq structure reveals a conserved mechanism of RNA annealing regulation”

T1: Cc78 (Caulobacter crescentus NA1000, UniProt B8GW92 1-78, del79-82)
T1 sequence: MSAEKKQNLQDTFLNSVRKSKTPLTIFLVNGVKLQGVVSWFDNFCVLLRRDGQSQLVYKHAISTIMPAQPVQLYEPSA


Legend:
Cc78 [1] = biological target: T1, Cc78; test: EMSA; Hill n 1.4; EMSA: 34 mM Tris-HCl pH 7.5, 50 mM NaCl, 50 mM KCl, 50 mM NH4Cl, 11.4 mM EDTA, 12% glycerol, 30 C, 30 min, ~1 nM 32P-RNA, Kd in Hfq6; anisotropy: 10 mM Tris-HCl; settings: protein: recombinant; tags: untagged after self-cleaved intein; chain copies: 6; label: 32P; stem-loops
Ec65 [2] = biological target: T2, Ec65 (Escherichia coli, UniProt P0A6X3 1-65, del66-102); test: EMSA; Hill n 1.6; EMSA: 34 mM Tris-HCl pH 7.5, 50 mM NaCl, 50 mM KCl, 50 mM NH4Cl, 11.4 mM EDTA, 12% glycerol, 30 C, 30 min, ~1 nM 32P-RNA, Kd in Hfq6; anisotropy: 10 mM Tris-HCl; settings: protein: recombinant; tags: untagged; chain copies: 6; label: 32P; stem-loops
EcCc Hfq [3] = biological target: T3, EcCc Hfq (Escherichia coli / Caulobacter …, UniProt P0A6X3 1-67+B8GW92:71-82, internal_change); test: as above; settings: protein: recombinant; tags: untagged; chain copies: 6; label: 32P; stem-loops
Ec Hfq (Hfq102) [4] = biological target: T4, Ec Hfq (Hfq102) (Escherichia coli, UniProt P0A6X3 1-102); test: EMSA; Hill n 1.0; Tris-glycine gel; EMSA: 34 mM Tris-HCl pH 7.5, 50 mM NaCl, 50 mM KCl, 50 mM NH4Cl, 11.4 mM EDTA, 12% glycerol, 30 C, 30 min, ~1 nM 32P-RNA, Kd in Hfq6; anisotropy: 10 mM Tris-HCl; settings: protein: recombinant; tags: untagged; chain copies: 6; label: 32P; stem-loops
Ec65 [5] = biological target: T2, Ec65; test: EMSA; Hill n 1.0; EMSA: 34 mM Tris-HCl pH 7.5, 50 mM NaCl, 50 mM KCl, 50 mM NH4Cl, 11.4 mM EDTA, 12% glycerol, 30 C, 30 min, ~1 nM 32P-RNA, Kd in Hfq6; anisotropy: 10 mM Tris-HCl; settings: protein: recombinant; tags: untagged; chain copies: 6; label: 32P; stem-loops
EcCc Hfq [6] = biological target: T3, EcCc Hfq; test: EMSA; Hill n 5.1; EMSA: 34 mM Tris-HCl pH 7.5, 50 mM NaCl, 50 mM KCl, 50 mM NH4Cl, 11.4 mM EDTA, 12% glycerol, 30 C, 30 min, ~1 nM 32P-RNA, Kd in Hfq6; anisotropy: 10 mM Tris-HCl; settings: protein: recombinant; tags: untagged; chain copies: 6; label: 32P; stem-loops
Cc78 [7] = biological target: T1, Cc78; test: EMSA; Hill n 1.3; EMSA: 34 mM Tris-HCl pH 7.5, 50 mM NaCl, 50 mM KCl, 50 mM NH4Cl, 11.4 mM EDTA, 12% glycerol, 30 C, 30 min, ~1 nM 32P-RNA, Kd in Hfq6; anisotropy: 10 mM Tris-HCl; settings: protein: recombinant; tags: untagged after self-cleaved intein; chain copies: 6; label: 32P; stem-loops
Ec Hfq (Hfq102) [8] = biological target: T4, Ec Hfq (Hfq102); test: EMSA; Hill n 8.2; Tris-glycine gel; EMSA: 34 mM Tris-HCl pH 7.5, 50 mM NaCl, 50 mM KCl, 50 mM NH4Cl, 11.4 mM EDTA, 12% glycerol, 30 C, 30 min, ~1 nM 32P-RNA, Kd in Hfq6; anisotropy: 10 mM Tris-HCl; settings: protein: recombinant; tags: untagged; chain copies: 6; label: 32P; stem-loops

Row | Binder | Kd (Cc78 [1]) [nM] | Kd (Ec65 [2]) [nM] | Kd (EcCc Hfq [3]) [nM] | Kd (Ec Hfq (Hfq102) [4]) [nM] | Kd (Ec65 [5]) [nM] | Kd (EcCc Hfq [6]) [nM] | Kd (Cc78 [7]) [nM] | Kd (Ec Hfq (Hfq102) [8]) [nM]
1 | ChvR (structured_RNA) RNA: GGCGGGGCCUACAUGUCGCGCAAGUCUCCGGAGGGCCAUUCCGAGGCGGGGCCCGCUCCAGCGUCCUCAUUGGAGCGGGCGUCU | 256 ± 25 | 20.2 ± 0.3 | 228 ± 84 | 17.2 ± 1 |  |  |  | 
2 | R157 (structured_RNA) RNA: GGUGAGGCGCCGAGCGCCUCUGCCCUUCCUGGGCGUUUCCUCCCUAUGACUUUGUAGCCCGGUCUUCAUGGCCGGGCUUUCUUUUU |  |  |  |  | 6.3 ± 1.1 | 55.7 ± 2.7 | 349 ± 7 | 14.3 ± 0.1
